Experiments:
hnRNP H2 (mouse) = assay: pull-down/MS; settings: Pull-down: 20 mM Tris-HCl pH 7.5, 200 mM NaCl, 6 mM EDTA, 5 mM KF, 5 mM beta-glycerophosphate, 4 h at 4 C, 100 ug nuclear extract; EMSA: BersinBio RNA-EMSA …
[1] = test system: hnRNP H1 (B cell nuclear extract) (mouse); assay: pull-down/MS; settings: Pull-down: 20 mM Tris-HCl pH 7.5, 200 mM NaCl, 6 mM EDTA, 5 mM KF, 5 mM beta-glycerophosphate, 4 h at 4 C, 100 ug nuclear extract; EMSA: BersinBio RNA-EMSA …
CELF2 (mouse) = assay: pull-down/MS; settings: Pull-down: 20 mM Tris-HCl pH 7.5, 200 mM NaCl, 6 mM EDTA, 5 mM KF, 5 mM beta-glycerophosphate, 4 h at 4 C, 100 ug nuclear extract; EMSA: BersinBio RNA-EMSA …
hnRNP H3 (mouse) = assay: pull-down/MS; settings: Pull-down: 20 mM Tris-HCl pH 7.5, 200 mM NaCl, 6 mM EDTA, 5 mM KF, 5 mM beta-glycerophosphate, 4 h at 4 C, 100 ug nuclear extract; EMSA: BersinBio RNA-EMSA …
hnRNP F = target: T1, hnRNP F (mouse, UniProt Q9Z2X1 1-415); assay: EMSA; Pull-down: 20 mM Tris-HCl pH 7.5, 200 mM NaCl, 6 mM EDTA, 5 mM KF, 5 mM beta-glycerophosphate, 4 h at 4 C, 100 ug nuclear extract; EMSA: BersinBio RNA-EMSA kit, 12.5 nM biotin-RNA, 200 ng protein; settings: protein: recombinant, tags: His
T1 sequence: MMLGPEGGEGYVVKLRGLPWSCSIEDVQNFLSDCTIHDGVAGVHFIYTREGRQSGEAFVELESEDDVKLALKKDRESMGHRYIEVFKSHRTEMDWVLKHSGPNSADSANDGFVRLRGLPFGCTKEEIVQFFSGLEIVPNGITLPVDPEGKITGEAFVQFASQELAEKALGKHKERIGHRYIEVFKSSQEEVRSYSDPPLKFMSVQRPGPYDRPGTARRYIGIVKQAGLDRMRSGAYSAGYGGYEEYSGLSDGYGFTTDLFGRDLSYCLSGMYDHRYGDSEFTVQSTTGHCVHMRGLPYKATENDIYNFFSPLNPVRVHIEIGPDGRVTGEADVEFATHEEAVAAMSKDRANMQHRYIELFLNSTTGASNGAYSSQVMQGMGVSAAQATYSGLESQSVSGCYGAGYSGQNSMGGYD

Molecule: Cd40 exon 6 sense RNA
- binding signal (fold LFQ (sense/antisense)) (hnRNP H2 (mouse)): > 5
- binding signal (fold LFQ (sense/antisense)) [1]: > 5
- binding signal (fold LFQ (sense/antisense)) (CELF2 (mouse)): > 5
- binding signal (fold LFQ (sense/antisense)) (hnRNP H3 (mouse)): > 5

Molecule: UCCAGGGGAGAAUGGCCUUGCCAAGUCUUUGGGAAGCAGGGAACU (ssRNA) [I6-WT]
- binding result (hnRNP F): binds

Molecule: UCAGGAGAGGAAAGGGAGGGAGGGU (ssRNA) [I7-WT]
- binding result (hnRNP F; label: 5' biotin): binds
